Paper PMC10491024 (Cell reports, 2023)

B1: N751-2C09.01 IgG (antibody, V domains shown)
VH: EVQLVESGEGLVQPGGSLRLSCAASGFTFSSHAMHWVRQAPGKGLEYVSAISSEGGSTYYADSVRGRFIISRDNSKNTLYLQMGSLRAEDMAVYYCARVTGDYNWYFDLWGRGTLVTVSS
VL: EIVMTQSPATLSVSPGERATLSCRASQGVSSNLAWYQQKPGQAPRLLIHGASTRATGSPARFSGSGSGTEFTLTISSLQSEDFAVYSCQQYHNWPWTFGQGTKVEIK
B2: N751-2C06.01 IgG (antibody, V domains shown)
VH: EVQLVESGGGLVQPGGSLRLSCSASGFTFSSYAMHWVRQAPGKGLEYVSAISGNGDSTYYADSVRGRFTISRDNSKNTLYLQMSSLRAEDTAVYYCVKQAAYCTRTSCYYFDYWGQGTLVTVSS
VL: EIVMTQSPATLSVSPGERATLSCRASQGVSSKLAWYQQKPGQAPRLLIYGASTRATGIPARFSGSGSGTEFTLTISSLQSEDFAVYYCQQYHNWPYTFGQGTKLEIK

Experiments:
Settings in all cases: both partners purified
FP7v1-rTTHC = biological target: T1, FP7v1-rTTHC (HIV-1, fusion peptide 512-518); assay: ELISA; plates coated with 2 μg/mL fusion peptide-rTTHC; 2C06 or 2C09 antibody serially diluted from 2 μg/mL, 1 h 37°C; anti-human IgG-HRP
T1 construct: also called shorter peptides
T1 chain: AVGIGAV

FP6v1-rTTHC = biological target: T2, FP6v1-rTTHC (HIV-1, fusion peptide 512-517); assay: as above
T2 construct: also called shorter peptides
T2 chain: AVGIGA

FP8v1-rTTHC = biological target: T3, FP8v1-rTTHC (HIV-1, fusion peptide 512-519 (BG505 …)); assay: ELISA
T3 construct: also called fusion peptide
T3 chain: AVGIGAVF

| Binder | binding result (FP7v1-rTTHC) | binding result (FP6v1-rTTHC) | binding result (FP8v1-rTTHC) |
| --- | --- | --- | --- |
| B1 | binds | binds | binds |
| B2 | – | – | binds |
